Paper PMC13215203

What follows are binders tested against reconstituted C. elegans γ-tubulin complex (γTuC): γ-tubulin^TBG-1, GCP2^GIP-2-5Myc, GCP3^GIP-1 and MZT-1, P34475;G5EF84 (assay: γTuC pull-down (γTuC-coated Myc beads), anti-SPD-5 immunoblot band intensity). Conditions: chain shown with the change; +PLK1 preincubation (500 nM PLK1(T194D), 2.0 μM fragment, 1 hour at 23°C); binding 2 hours at 4°C, SPD-5 fragment 75 nM; scale: band intensity relative to SPD-5 135-473 without PLK1.
Target sequence (chain, as listed by the source, chain 1 of 4): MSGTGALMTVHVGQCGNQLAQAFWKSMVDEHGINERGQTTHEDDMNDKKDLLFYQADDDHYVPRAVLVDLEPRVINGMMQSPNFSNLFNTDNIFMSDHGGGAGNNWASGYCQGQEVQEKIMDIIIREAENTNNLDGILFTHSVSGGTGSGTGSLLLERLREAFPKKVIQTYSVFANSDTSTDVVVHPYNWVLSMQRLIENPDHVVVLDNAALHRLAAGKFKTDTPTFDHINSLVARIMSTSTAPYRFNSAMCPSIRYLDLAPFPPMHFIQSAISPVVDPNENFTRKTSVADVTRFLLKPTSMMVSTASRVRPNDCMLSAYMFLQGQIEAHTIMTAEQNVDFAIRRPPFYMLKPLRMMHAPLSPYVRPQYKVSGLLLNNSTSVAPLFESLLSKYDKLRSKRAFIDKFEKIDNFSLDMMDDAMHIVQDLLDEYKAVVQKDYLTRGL
Target sequence (chain, as listed by the source, chain 2 of 4): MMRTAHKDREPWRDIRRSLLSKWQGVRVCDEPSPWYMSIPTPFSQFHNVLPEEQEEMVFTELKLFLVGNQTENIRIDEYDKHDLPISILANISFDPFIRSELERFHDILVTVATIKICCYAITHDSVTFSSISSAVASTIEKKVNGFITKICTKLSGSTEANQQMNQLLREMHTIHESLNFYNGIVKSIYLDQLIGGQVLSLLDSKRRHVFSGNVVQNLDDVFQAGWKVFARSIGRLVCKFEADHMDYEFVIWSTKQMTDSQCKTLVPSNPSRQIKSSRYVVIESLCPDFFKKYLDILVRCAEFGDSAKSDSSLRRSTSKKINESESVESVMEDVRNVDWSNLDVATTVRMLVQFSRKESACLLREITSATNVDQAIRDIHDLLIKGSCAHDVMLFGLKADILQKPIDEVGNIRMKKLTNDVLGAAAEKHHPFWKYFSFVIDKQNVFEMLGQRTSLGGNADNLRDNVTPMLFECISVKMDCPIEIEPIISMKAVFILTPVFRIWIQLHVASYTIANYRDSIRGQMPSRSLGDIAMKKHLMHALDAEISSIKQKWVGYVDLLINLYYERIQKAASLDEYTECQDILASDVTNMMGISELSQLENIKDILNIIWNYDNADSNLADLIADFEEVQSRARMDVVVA
Target sequence (chain, as listed by the source, chain 3 of 4): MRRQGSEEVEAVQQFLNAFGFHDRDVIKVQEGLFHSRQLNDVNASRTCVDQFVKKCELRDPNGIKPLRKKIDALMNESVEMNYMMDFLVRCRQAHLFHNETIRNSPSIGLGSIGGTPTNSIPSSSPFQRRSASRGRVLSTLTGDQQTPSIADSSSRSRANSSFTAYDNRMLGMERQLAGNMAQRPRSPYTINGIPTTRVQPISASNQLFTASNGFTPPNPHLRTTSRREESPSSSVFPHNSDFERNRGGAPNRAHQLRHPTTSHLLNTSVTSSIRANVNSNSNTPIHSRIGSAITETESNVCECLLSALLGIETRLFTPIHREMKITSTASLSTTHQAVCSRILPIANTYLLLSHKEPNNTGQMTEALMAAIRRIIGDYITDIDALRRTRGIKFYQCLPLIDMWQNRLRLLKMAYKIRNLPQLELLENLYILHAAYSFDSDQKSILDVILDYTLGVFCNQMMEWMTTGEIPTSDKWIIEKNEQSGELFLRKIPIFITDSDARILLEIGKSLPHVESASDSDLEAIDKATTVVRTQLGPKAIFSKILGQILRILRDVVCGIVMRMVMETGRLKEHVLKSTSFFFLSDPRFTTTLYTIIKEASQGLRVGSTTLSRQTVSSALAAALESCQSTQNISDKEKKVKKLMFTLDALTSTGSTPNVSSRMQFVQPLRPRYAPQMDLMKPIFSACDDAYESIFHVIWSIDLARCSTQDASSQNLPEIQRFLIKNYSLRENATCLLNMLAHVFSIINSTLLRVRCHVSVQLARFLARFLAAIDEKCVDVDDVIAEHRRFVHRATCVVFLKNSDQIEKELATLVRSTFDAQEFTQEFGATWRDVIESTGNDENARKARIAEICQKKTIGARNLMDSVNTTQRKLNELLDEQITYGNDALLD
Target sequence (chain, as listed by the source, chain 4 of 4): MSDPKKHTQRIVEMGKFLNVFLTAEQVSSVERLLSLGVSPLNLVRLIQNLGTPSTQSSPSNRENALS

Row | response | Binder
1 | 0.1 | untagged SPD-5 amino acids 135-473, phosphorylated by PLK1, P91349 S170A; T178A; T198A (protein) MQSRIETSEDNFARQMKEFEAQKHAMEERIKELELAATDANNTAVGSFRGTLDDILKKNDPDFALTSGYEERKINDLEAKLLSEIDKVAELEDHIQQLRQELDDQSARLADSENVRAQLEAATGQGILGAAGNAMVPNSTFMIGNGRESQTRDQLNYIDDLETKLADAKKENDKARQALVEYMNKCSKLEHEIRTMVKNSTFDSSSMLLGGQTSDELKIQIGKVNGELNVLRAENRELRIRCDQLTGGDGNLSISLGQSRLMAGIATNDVDSIGQGNETGGTSMRILPRESQLDDLEESKLPLMDTSSAVRNQQQFASMWEDFESVKDSLQNNHNDTLE
2 | 0 | untagged SPD-5 amino acids 135-473, phosphorylated by PLK1, P91349 S170A; T178A; T198A; T274A; T335A; S339A; S340A (protein) MQSRIETSEDNFARQMKEFEAQKHAMEERIKELELAATDANNTAVGSFRGTLDDILKKNDPDFALTSGYEERKINDLEAKLLSEIDKVAELEDHIQQLRQELDDQSARLADSENVRAQLEAATGQGILGAAGNAMVPNSAFMIGNGRESQTRDQLNYIDDLETKLADAKKENDKARQALVEYMNKCSKLEHEIRTMVKNSAFDSAAMLLGGQTSDELKIQIGKVNGELNVLRAENRELRIRCDQLTGGDGNLSISLGQSRLMAGIATNDVDSIGQGNETGGTSMRILPRESQLDDLEESKLPLMDTSSAVRNQQQFASMWEDFESVKDSLQNNHNDTLE
3 | 2.8 | untagged SPD-5 amino acids 135-473, phosphorylated by PLK1, P91349 T274A; T335A; S339A; S340A (protein) MQSRIETSEDNFARQMKEFEAQKHAMEERIKELELSATDANNTTVGSFRGTLDDILKKNDPDFTLTSGYEERKINDLEAKLLSEIDKVAELEDHIQQLRQELDDQSARLADSENVRAQLEAATGQGILGAAGNAMVPNSAFMIGNGRESQTRDQLNYIDDLETKLADAKKENDKARQALVEYMNKCSKLEHEIRTMVKNSAFDSAAMLLGGQTSDELKIQIGKVNGELNVLRAENRELRIRCDQLTGGDGNLSISLGQSRLMAGIATNDVDSIGQGNETGGTSMRILPRESQLDDLEESKLPLMDTSSAVRNQQQFASMWEDFESVKDSLQNNHNDTLE

Same assay, conditions: chain shown with the change; no PLK1; binding 2 hours at 4°C, SPD-5 fragment 75 nM; scale: band intensity relative to SPD-5 135-473 without PLK1

Row | response | Binder
4 | 0.1 | untagged SPD-5 amino acids 135-473, not phosphorylated, P91349 T274A; T335A; S339A; S340A (protein) MQSRIETSEDNFARQMKEFEAQKHAMEERIKELELSATDANNTTVGSFRGTLDDILKKNDPDFTLTSGYEERKINDLEAKLLSEIDKVAELEDHIQQLRQELDDQSARLADSENVRAQLEAATGQGILGAAGNAMVPNSAFMIGNGRESQTRDQLNYIDDLETKLADAKKENDKARQALVEYMNKCSKLEHEIRTMVKNSAFDSAAMLLGGQTSDELKIQIGKVNGELNVLRAENRELRIRCDQLTGGDGNLSISLGQSRLMAGIATNDVDSIGQGNETGGTSMRILPRESQLDDLEESKLPLMDTSSAVRNQQQFASMWEDFESVKDSLQNNHNDTLE
5 | 0.7 | untagged SPD-5 amino acids 135-473, not phosphorylated, P91349 S170A; T178A; T198A (protein) MQSRIETSEDNFARQMKEFEAQKHAMEERIKELELAATDANNTAVGSFRGTLDDILKKNDPDFALTSGYEERKINDLEAKLLSEIDKVAELEDHIQQLRQELDDQSARLADSENVRAQLEAATGQGILGAAGNAMVPNSTFMIGNGRESQTRDQLNYIDDLETKLADAKKENDKARQALVEYMNKCSKLEHEIRTMVKNSTFDSSSMLLGGQTSDELKIQIGKVNGELNVLRAENRELRIRCDQLTGGDGNLSISLGQSRLMAGIATNDVDSIGQGNETGGTSMRILPRESQLDDLEESKLPLMDTSSAVRNQQQFASMWEDFESVKDSLQNNHNDTLE
6 | 0.1 | untagged SPD-5 amino acids 135-473, not phosphorylated, P91349 S170A; T178A; T198A; T274A; T335A; S339A; S340A (protein) MQSRIETSEDNFARQMKEFEAQKHAMEERIKELELAATDANNTAVGSFRGTLDDILKKNDPDFALTSGYEERKINDLEAKLLSEIDKVAELEDHIQQLRQELDDQSARLADSENVRAQLEAATGQGILGAAGNAMVPNSAFMIGNGRESQTRDQLNYIDDLETKLADAKKENDKARQALVEYMNKCSKLEHEIRTMVKNSAFDSAAMLLGGQTSDELKIQIGKVNGELNVLRAENRELRIRCDQLTGGDGNLSISLGQSRLMAGIATNDVDSIGQGNETGGTSMRILPRESQLDDLEESKLPLMDTSSAVRNQQQFASMWEDFESVKDSLQNNHNDTLE
